Values of other authors in publication PMC8215388.

Molecular target: DnaK (Escherichia coli) (UniProt P0A6Y8)
Assay: analytical ultracentrifugation and cross-linking

Sequence of DnaK (P0A6Y8 2-638): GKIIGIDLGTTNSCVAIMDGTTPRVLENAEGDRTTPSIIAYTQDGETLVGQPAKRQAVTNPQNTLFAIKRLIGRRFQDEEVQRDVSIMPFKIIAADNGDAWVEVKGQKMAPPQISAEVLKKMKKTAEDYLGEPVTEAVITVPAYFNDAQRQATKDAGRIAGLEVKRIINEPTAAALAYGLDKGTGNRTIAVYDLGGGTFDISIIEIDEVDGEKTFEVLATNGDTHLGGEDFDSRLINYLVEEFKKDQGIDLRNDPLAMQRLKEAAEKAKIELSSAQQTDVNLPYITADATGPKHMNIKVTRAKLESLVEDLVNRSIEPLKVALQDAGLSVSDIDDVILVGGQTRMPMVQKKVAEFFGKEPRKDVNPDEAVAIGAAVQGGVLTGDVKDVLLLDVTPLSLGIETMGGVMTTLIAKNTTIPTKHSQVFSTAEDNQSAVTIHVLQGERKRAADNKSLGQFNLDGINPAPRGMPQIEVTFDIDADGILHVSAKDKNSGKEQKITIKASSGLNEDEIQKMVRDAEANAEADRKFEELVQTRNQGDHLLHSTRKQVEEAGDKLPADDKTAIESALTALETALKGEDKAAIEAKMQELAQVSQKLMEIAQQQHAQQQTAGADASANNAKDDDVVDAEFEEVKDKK

- Kd: 200 µM
Substance: DnaK (from UniProt P0A6Y8)
